# Results published in patent US20250076311A1 (Chugai, published 2025).
# Numbering of substitutions follows the chain as printed. Numbers in names are those of the source.
# B1: GpH7-B3 N325F / GpL16-k0 (antibody, human IgG1, kappa)
# heavy: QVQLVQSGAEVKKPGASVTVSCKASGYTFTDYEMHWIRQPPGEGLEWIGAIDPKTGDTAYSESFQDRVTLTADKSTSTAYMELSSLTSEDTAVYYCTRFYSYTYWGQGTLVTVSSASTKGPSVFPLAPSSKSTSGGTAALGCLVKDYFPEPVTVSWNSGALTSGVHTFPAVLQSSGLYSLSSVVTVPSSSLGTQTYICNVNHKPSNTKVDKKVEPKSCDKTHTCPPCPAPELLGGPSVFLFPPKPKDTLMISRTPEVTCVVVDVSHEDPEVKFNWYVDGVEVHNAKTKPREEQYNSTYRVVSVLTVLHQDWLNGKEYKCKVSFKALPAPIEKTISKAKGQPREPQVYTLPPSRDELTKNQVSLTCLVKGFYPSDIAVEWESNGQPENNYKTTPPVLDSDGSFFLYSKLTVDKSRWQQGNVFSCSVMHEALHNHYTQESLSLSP
# light: DIVMTQSPLSLPVTPGEPASISCQASESLVHSNRNTYLHWYLQKPGQSPQLLIYKVSNRFSGVPDRFSGSGSGTDFTLKISRVEAEDVGVYYCSQNTHVPPTFGQGTKVEIERTVAAPSVFIFPPSDEQLKSGTASVVCLLNNFYPREAKVQWKVDNALQSGNSQESVTEQDSKDSTYSLSSTLTLSKADYEKHKVYACEVTHQGLSSPVTKSFNRGEC
# notes: also called B3 variant N325F
# B2: GpH7-B3 S239P / GpL16-k0 (antibody, human IgG1, kappa)
# heavy: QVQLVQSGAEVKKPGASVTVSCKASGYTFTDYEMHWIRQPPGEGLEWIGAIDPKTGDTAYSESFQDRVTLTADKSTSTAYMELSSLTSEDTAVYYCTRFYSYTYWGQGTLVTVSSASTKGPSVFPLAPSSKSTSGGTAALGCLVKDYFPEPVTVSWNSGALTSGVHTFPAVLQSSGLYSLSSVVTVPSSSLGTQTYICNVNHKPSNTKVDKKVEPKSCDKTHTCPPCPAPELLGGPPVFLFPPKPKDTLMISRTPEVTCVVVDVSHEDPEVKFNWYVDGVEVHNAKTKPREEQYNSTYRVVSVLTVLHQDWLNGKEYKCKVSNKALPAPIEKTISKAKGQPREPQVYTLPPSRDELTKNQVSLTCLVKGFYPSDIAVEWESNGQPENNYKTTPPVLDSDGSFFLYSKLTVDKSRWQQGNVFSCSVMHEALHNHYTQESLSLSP
# light: B1 light
# notes: also called B3 variant S239P
# B3: GpH7-B3 P238Y / GpL16-k0 (antibody, human IgG1, kappa)
# heavy: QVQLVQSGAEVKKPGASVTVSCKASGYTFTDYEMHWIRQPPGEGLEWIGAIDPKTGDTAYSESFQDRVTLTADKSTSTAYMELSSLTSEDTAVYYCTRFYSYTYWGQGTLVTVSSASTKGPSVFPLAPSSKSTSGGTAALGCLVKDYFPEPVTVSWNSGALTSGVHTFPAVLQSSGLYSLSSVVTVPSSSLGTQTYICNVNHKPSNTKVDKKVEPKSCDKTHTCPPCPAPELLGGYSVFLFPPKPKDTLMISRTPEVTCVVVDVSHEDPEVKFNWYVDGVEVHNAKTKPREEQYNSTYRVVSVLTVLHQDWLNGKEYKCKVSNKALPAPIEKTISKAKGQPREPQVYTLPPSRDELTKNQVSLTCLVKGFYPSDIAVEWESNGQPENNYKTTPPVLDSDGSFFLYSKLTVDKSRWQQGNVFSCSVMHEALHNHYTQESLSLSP
# light: B1 light
# notes: also called B3 variant P238Y
# B4: M103205H795-MY197/M103202L889-SK1 (antibody, human IgG1, kappa, name in EU numbering)
# heavy: QVTLKESGPVLVKPTETLTLTCTVSGIDLSHDDISWVRQAPGKGLEWVGIISYAGSTYYASWAKGRLTISKDTSKNQVVLTMTNMDPVDTATYYCARGVPAYSHGGDLWGQGTLVTVSSASTKGPSVFPLAPSSKSTSGGTAALGCLVKDYFPEPVTVSWNSGALTSGVHTFPAVLQSSGLYSLSSVVTVPSSSLGTQTYICNVNHKPSNTKVDKKVEPKSCDKTHTCPPCPAPELLNGPSVFLFPPKPKDTLMISRTPEVTCVVVDVSDEDPEVKFNWYVDGVEVHNAKTKPREEQYNSTYRVVSVLTVLHQDWLNGKEYKCKVSNKALPKPIEKTISKAKGQPREPQVYTLPPSREEMTKNQVSLTCLVKGFYPSDIAVEWESNGQPENNYKTTPMVLDSDGSFFLYSKLTVDKSRWQQGNVFSCSVMHEALHNHYTQKSLSLSP
# light: DIVMTQSPATLSLSPGERATLSCTSSQSVYHANWLSWFQQKPGQPPKLLIYWASTLAYGVPSRFSGSGSGTDFTLTISSLQPEDAATYYCAGGYGGGRYAFGQGTKVEIKRTVAAPSVFIFPPSDEQLKSGTASVVCLLNNFYPREAKVQWKVDNALQSGNSQESVTEQDSKDSTYSLSSTLTLSKADYEKHKVYACEVTHQGLSSPVTKSFNRGEC
# notes: Fc variant of MS1032LO06-SG1; positions in EU numbering
# B5: M103205H795-MY202/M103202L889-SK1 (antibody, human IgG1, kappa, name in EU numbering)
# heavy: B4 heavy with S241V, M398P
# light: B4 light
# notes: as for B4
# B6: M103205H795-MY447/M103202L889-SK1 (antibody, human IgG1, kappa, name in EU numbering)
# heavy: B4 heavy with P234I, N238T, M398P
# light: B4 light
# B7: M103205H795-MY434/M103202L889-SK1 (antibody, human IgG1, kappa, name in EU numbering)
# heavy: B4 heavy with L237W, M398P
# light: B4 light
# notes: as for B4
# B8: M103205H795-MY208/M103202L889-SK1 (antibody, human IgG1, kappa, name in EU numbering)
# heavy: B4 heavy with Q297L, K332A, M398P
# light: B4 light
# notes: substitutions in EU numbering, introduced into M103205H795-SG1
# B9: M103205H795-MY207/M103202L889-SK1 (antibody, human IgG1, kappa, name in EU numbering)
# heavy: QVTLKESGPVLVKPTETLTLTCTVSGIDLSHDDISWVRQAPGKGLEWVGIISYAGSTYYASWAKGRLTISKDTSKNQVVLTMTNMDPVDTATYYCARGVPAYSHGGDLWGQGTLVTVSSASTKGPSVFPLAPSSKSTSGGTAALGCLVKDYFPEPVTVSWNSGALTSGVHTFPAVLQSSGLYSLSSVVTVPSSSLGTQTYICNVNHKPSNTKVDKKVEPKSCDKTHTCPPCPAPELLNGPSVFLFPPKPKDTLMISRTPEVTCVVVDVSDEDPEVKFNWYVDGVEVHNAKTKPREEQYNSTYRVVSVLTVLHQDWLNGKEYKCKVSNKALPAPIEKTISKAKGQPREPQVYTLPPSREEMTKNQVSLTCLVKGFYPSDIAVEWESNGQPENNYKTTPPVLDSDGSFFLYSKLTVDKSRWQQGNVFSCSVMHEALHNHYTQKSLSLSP
# light: B4 light
# notes: as for B8
# B10: M103205H795-MY211/M103202L889-SK1 (antibody, human IgG1, kappa, name in EU numbering)
# heavy: B4 heavy with S241V, K328T, M398P
# light: B4 light
# notes: as for B8
# B11: M103205H795-MY184/M103202L889-SK1 (antibody, human IgG1, kappa, name in EU numbering)
# heavy: B4 heavy with D270E, K332A, M398Y
# light: B4 light
# notes: EU numbering
# Assays:
# [1] = target: T1, human FcγRIIaH extracellular domain, His-tagged (human, UniProt P12318 34-217); experiment: SPR (Biacore), 25C, FcgR bound per antibody captured
# T1 construct: also called human FcgRIIaH; FcγRIIa type H
# T1 sequence: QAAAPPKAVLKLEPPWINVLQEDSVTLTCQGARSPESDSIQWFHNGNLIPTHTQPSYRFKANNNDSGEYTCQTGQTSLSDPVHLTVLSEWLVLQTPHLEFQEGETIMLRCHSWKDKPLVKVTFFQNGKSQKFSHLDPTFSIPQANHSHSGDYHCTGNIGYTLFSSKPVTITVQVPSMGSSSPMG
# [2] = target: T2, human FcγRIIb extracellular domain, His-tagged (human, UniProt P31994 43-217); experiment: as above
# T2 construct: also called human FcgRIIb
# T2 sequence: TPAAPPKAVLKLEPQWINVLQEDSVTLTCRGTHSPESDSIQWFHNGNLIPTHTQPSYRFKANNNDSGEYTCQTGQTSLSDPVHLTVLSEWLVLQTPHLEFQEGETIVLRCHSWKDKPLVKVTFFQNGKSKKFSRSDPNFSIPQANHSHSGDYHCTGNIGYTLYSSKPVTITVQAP
# [3] = target: T3, human FcγRIIIaV extracellular domain, His-tagged (human, UniProt P08637 17-208); experiment: as above
# T3 construct: also called human FcgRIIIaV
# T3 sequence (P08637 17-208 F176V): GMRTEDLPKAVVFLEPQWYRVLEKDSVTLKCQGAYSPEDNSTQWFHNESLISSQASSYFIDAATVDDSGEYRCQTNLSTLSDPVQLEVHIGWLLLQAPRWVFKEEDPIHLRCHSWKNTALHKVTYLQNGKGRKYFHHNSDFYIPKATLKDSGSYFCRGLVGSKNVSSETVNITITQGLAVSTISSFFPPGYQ
# [4] = target: T4, cynomolgus monkey FcγRIIIaS extracellular domain with C-terminal His-tag (cynomolgus monkey, UniProt A3RFZ7 21-206 (rhesus entry)); experiment: SPR (BIACORE); KD of SG1 / KD of variant
# T4 construct: also called cyno FcgRIIIaS; cynoFcγRIIIaS; not shown: His-tag added to the C-terminus
# Procedure: (§1) The kinetic analysis of interactions between these antibodies and FcγR was carried out using BIACORE® T200 or BIACORE® 4000 (GE Healthcare). HBS-EP+ (GE Healthcare) was used as the running buffer, and the measurement temperature was set to 25° C. […] After the measurement, the antibody captured on the chip was washed off by allowing reaction with 10 mM glycine-HCl, pH1.5 and 25 mM NaOH so that the chip was regenerated and used repeatedly. The sensorgrams obtained as measurement results were analyzed by the 1:1 Langmuir binding model using the BIACORE® Evaluation Software to calculate the binding rate constant ka (L/mol/s) and dissociation rate constant kd (1/s), and the dissociation constant KD (mol/L) was calculated from these values. […] Regarding such interactions, KD values were calculated using the following 1:1 binding model described in BIACORE® T100 Software Handbook BR1006-48 Edition AE.
# [5] = target: T5, cynomolgus monkey FcγRIIa3 extracellular domain with C-terminal His-tag (cynomolgus monkey); experiment: SPR (BIACORE), antibody captured, FcgR analyte
# T5 construct: also called cyno FcgRIIa3; cynoFcγRIIa3; not shown: His-tag added to the C-terminus
# T5 chain: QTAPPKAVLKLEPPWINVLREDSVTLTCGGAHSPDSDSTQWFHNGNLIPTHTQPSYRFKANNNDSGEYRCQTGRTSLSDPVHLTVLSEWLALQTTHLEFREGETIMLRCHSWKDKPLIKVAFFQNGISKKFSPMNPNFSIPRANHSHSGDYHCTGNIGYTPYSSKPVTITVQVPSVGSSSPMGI
# [6] = target: T4, cynomolgus monkey FcγRIIIaS …; experiment: SPR (BIACORE), antibody captured, FcgR analyte
# [7] = target: T6, human FcγRIIaH extracellular domain with C-terminal His-tag (human, UniProt P12318 34-217); experiment: SPR (BIACORE), antibody captured, FcgR analyte
# T6 construct: also called human FcgRIIaH; FcγRIIa type H; not shown: His-tag added to the C-terminus
# T6 sequence: T1 sequence
# [8] = target: T7, cynomolgus monkey FcγRIIIaS extracellular domain, His-tagged (cynomolgus monkey, UniProt Q8SPW2 21-206 at identity 1.00)); experiment: SPR (BIACORE), antibody captured, FcγR analyte, 25 C; KD of SG1 divided by KD of variant
# T7 construct: also called cyno FcγRIIIaS; cynoFcgRIIIaS
# T7 chain: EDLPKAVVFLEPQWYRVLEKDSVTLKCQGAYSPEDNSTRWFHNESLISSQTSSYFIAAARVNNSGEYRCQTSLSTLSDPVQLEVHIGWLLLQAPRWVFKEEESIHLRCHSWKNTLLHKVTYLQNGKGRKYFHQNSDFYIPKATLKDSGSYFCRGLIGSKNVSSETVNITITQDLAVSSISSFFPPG
# Procedure: as §1
# [9] = target: T8, human FcγRIIaR extracellular domain with C-terminal His-tag (human, UniProt P12318 34-217); experiment: SPR (BIACORE), antibody captured, FcgR analyte
# T8 construct: also called human FcgRIIaR; FcγRIIa type R; not shown: His-tag added to the C-terminus
# T8 chain: T1 sequence with H134R
# [10] = target: T9, cynomolgus monkey FcγRIIa2 extracellular domain with C-terminal His-tag (cynomolgus monkey); experiment: SPR Biacore, antibody captured, FcgR analyte
# T9 construct: also called cyno FcgRIIa2; cynoFcγRIIa2; not shown: His-tag added to C-terminus
# T9 chain: T5 chain with I127K, K130N, P133H, R142Q
# [11] = target: T10, cynomolgus monkey FcγRIIIaS extracellular domain with C-terminal His-tag (cynomolgus monkey, UniProt A3RFZ7 21-206 (rhesus entry)); experiment: SPR Biacore, antibody captured, FcgR analyte
# T10 construct: also called cyno FcgRIIIaS; cynoFcγRIIIaS; not shown: His-tag added to C-terminus
# [12] = target: T11, cynomolgus monkey FcγRIIa3 extracellular domain with C-terminal His-tag (cynomolgus monkey); experiment: SPR Biacore, antibody captured, FcgR analyte
# T11 construct: also called cyno FcgRIIa3; cynoFcγRIIa3; not shown: His-tag added to C-terminus
# T11 chain: T5 chain
# [13] = target: T12, cynomolgus monkey FcγRIIb extracellular domain with C-terminal His-tag (cynomolgus monkey); experiment: SPR Biacore, antibody captured, FcgR analyte
# T12 construct: also called cyno FcgRIIb; cynoFcγRIIb; not shown: His-tag added to C-terminus
# T12 chain: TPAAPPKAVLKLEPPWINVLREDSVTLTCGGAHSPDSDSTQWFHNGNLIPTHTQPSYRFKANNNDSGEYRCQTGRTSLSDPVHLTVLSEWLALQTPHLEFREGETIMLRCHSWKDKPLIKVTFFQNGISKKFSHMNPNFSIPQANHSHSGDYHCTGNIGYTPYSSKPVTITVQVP
# [14] = target: T13, human FcγRIIb extracellular domain with C-terminal His-tag (human, UniProt P31994 43-217); experiment: SPR Biacore, antibody captured, FcgR analyte
# T13 construct: also called human FcgRIIb; not shown: His-tag added to C-terminus
# T13 sequence: T2 sequence
binder,measurement,setting,value
B1,Binding to human FcgRs (parent B3 = 100),[1],65
same,Binding to human FcgRs (parent B3 = 100),[2],72
same,Binding to human FcgRs (parent B3 = 100),[3],-1
B2,Binding to human FcgRs (parent B3 = 100),[1],49
same,Binding to human FcgRs (parent B3 = 100),[2],61
same,Binding to human FcgRs (parent B3 = 100),[3],-1
B3,Binding to human FcgRs (parent B3 = 100),[1],93
same,Binding to human FcgRs (parent B3 = 100),[2],114
same,Binding to human FcgRs (parent B3 = 100),[3],3
B4,KD fold (SG1 = 1),[4],0.17 fold
same,Kd,[5],1400 nM
same,Kd,[6],2.1 µM
same,Kd,[7],160 nM
B5,Kd,[5],2200 nM
same,Kd,[6],4 µM
same,Kd,[7],1200 nM
B6,KD fold (SG1 = 1),[8],0.3 fold
B7,Kd,[5],6400 nM
same,Kd,[6],11 µM
same,Kd,[7],1600 nM
same,Kd,[9],19 nM
B8,KD fold (SG1 = 1),[10],3.4 fold
same,KD fold (SG1 = 1),[11],0.13 fold
B9,KD fold (SG1 = 1),[10],3.6 fold
same,KD fold (SG1 = 1),[11],0.09 fold
B10,KD fold (SG1 = 1),[10],8.8 fold
same,KD fold (SG1 = 1),[12],6.5 fold
same,KD fold (SG1 = 1),[11],0.17 fold
B11,KD fold (SG1 = 1),[10],2.8 fold
same,Kd,[13],900 nM
same,KD fold (SG1 = 1),[11],0.11 fold
same,Kd,[11],3.3 µM
same,KD fold (SG1 = 1),[14],4.7 fold
